# Test system: Escherichia coli TOP10
# Experiment: shrunken log2 fold change of peptide-encoding DNA abundance (4.5 h post-induction vs induction); higher = less antimicrobial activity (less host growth inhibition)
# Conditions: time post-induction: 4.5 h; library: site-saturation at positions 5, 18, 19, 20
# 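Note: peptides expressed intracellularly from a pBAD plasmid library in pooled LB shake-flask culture, induced with 0.3% L-arabinose, DNA abundance read by NGS, three biological replicates, DESeq2 with apeglm shrinkage.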
row,Sequence,shrunken log2 fold change
1,RRIRMRPPRLPRPRPRPINHPRP,-0.173
2,RRIRLRPPRLPRPRPRPLCVPRP,0.688
3,RRIRSRPPRLPRPRPRPNTQPRP,-0.274
4,RRIRDRPPRLPRPRPRPFSPPRP,-0.158
5,RRIRSRPPRLPRPRPRPQSMPRP,-0.384
6,RRIRGRPPRLPRPRPRPTTHPRP,0.875
7,RRIRVRPPRLPRPRPRPTFGPRP,0.215
8,RRIRTRPPRLPRPRPRPRTMPRP,0.0616
9,RRIRVRPPRLPRPRPRPVYCPRP,-0.482
10,RRIRVRPPRLPRPRPRPGDWPRP,0.432
11,RRIRDRPPRLPRPRPRPRNEPRP,0.00109
12,RRIRRRPPRLPRPRPRPVMYPRP,-0.127
13,RRIRKRPPRLPRPRPRPDETPRP,3.04
14,RRIRPRPPRLPRPRPRPTEEPRP,0.551
15,RRIRNRPPRLPRPRPRPNVYPRP,-0.17
16,RRIRWRPPRLPRPRPRPTHIPRP,-0.067
17,RRIRTRPPRLPRPRPRPFQFPRP,-0.131
18,RRIRDRPPRLPRPRPRPACHPRP,0.0454
19,RRIRLRPPRLPRPRPRPIITPRP,-0.613
20,RRIRYRPPRLPRPRPRPVNTPRP,-0.473
21,RRIRERPPRLPRPRPRPHDKPRP,-0.784
22,RRIRGRPPRLPRPRPRPGTQPRP,0.143

row,Sequence,shrunken log2 fold change
1,RRIRDRPPRLPRPRPRPNPQPRP,-0.19
2,RRIRCRPPRLPRPRPRPCEKPRP,0.0534
3,RRIRKRPPRLPRPRPRPRYNPRP,-0.312
4,RRIRERPPRLPRPRPRPLSIPRP,-0.367
5,RRIRNRPPRLPRPRPRPEQKPRP,-0.00208
6,RRIRLRPPRLPRPRPRPMKPPRP,-0.0332
7,RRIRERPPRLPRPRPRPHIMPRP,-0.652
8,RRIRTRPPRLPRPRPRPPPIPRP,0.451
9,RRIRQRPPRLPRPRPRPHYMPRP,-0.474
10,RRIRSRPPRLPRPRPRPCGVPRP,0.0491
11,RRIRNRPPRLPRPRPRPKEHPRP,-0.0991
12,RRIRNRPPRLPRPRPRPMDNPRP,-0.105
13,RRIRYRPPRLPRPRPRPMITPRP,-0.386
14,RRIRHRPPRLPRPRPRPVCQPRP,-0.147
15,RRIRLRPPRLPRPRPRPQPLPRP,0.00386
16,RRIRARPPRLPRPRPRPLNSPRP,0.0404
17,RRIRIRPPRLPRPRPRPVDFPRP,-0.133
18,RRIRFRPPRLPRPRPRPFYCPRP,-0.781
19,RRIRERPPRLPRPRPRPNRDPRP,-0.192
20,RRIRMRPPRLPRPRPRPIEHPRP,-0.0129
21,RRIRDRPPRLPRPRPRPVLTPRP,0.31
22,RRIRNRPPRLPRPRPRPDVYPRP,-0.0277

row,Sequence,shrunken log2 fold change
1,RRIRLRPPRLPRPRPRPGFWPRP,0.406
2,RRIRNRPPRLPRPRPRPQFYPRP,-0.475
3,RRIRMRPPRLPRPRPRPCMDPRP,0.104
4,RRIRNRPPRLPRPRPRPEQRPRP,0.00383
5,RRIRVRPPRLPRPRPRPYPGPRP,-0.183
6,RRIRHRPPRLPRPRPRPEVMPRP,-0.0878
7,RRIRFRPPRLPRPRPRPSPGPRP,-0.101
8,RRIRDRPPRLPRPRPRPTPYPRP,-0.13
9,RRIRSRPPRLPRPRPRPAMGPRP,0.313
10,RRIRMRPPRLPRPRPRPMCPPRP,-0.00088
11,RRIRERPPRLPRPRPRPFSMPRP,-0.366
12,RRIRVRPPRLPRPRPRPYTQPRP,-0.171
13,RRIRQRPPRLPRPRPRPPKAPRP,-0.058
14,RRIRERPPRLPRPRPRPPKCPRP,0.0212
15,RRIRVRPPRLPRPRPRPQKKPRP,-0.117
16,RRIRQRPPRLPRPRPRPRYEPRP,-0.349
17,RRIRSRPPRLPRPRPRPRFAPRP,0.24
18,RRIRSRPPRLPRPRPRPTVRPRP,-0.00791
19,RRIRPRPPRLPRPRPRPRLLPRP,0.321
20,RRIRFRPPRLPRPRPRPYNAPRP,-0.714
21,RRIRVRPPRLPRPRPRPWMAPRP,-0.338
22,RRIRHRPPRLPRPRPRPVGRPRP,0.226

row,Sequence,shrunken log2 fold change
1,RRIRCRPPRLPRPRPRPDSMPRP,-0.0886
2,RRIRKRPPRLPRPRPRPQCCPRP,-0.101
3,RRIRIRPPRLPRPRPRPPKNPRP,-0.159
4,RRIRFRPPRLPRPRPRPIVIPRP,-0.205
5,RRIRERPPRLPRPRPRPETKPRP,-0.231
6,RRIRSRPPRLPRPRPRPYGCPRP,-0.248
7,RRIRVRPPRLPRPRPRPRYPPRP,-0.294
8,RRIRGRPPRLPRPRPRPKWHPRP,0.542
9,RRIRSRPPRLPRPRPRPQLCPRP,0.0696
10,RRIRKRPPRLPRPRPRPFFDPRP,0.112
11,RRIRLRPPRLPRPRPRPEIHPRP,-0.269
12,RRIRARPPRLPRPRPRPVVSPRP,0.188
13,RRIRNRPPRLPRPRPRPDKPPRP,-0.14
14,RRIRTRPPRLPRPRPRPKTKPRP,-0.212
15,RRIRDRPPRLPRPRPRPQPAPRP,0.559
16,RRIRKRPPRLPRPRPRPFNIPRP,0.186
17,RRIRLRPPRLPRPRPRPFAYPRP,-0.163
18,RRIRGRPPRLPRPRPRPREVPRP,1.05
19,RRIRKRPPRLPRPRPRPWLEPRP,-0.00226
20,RRIRSRPPRLPRPRPRPTHGPRP,0.28
21,RRIRARPPRLPRPRPRPEPLPRP,0.284
22,RRIRLRPPRLPRPRPRPGMTPRP,0.00528

row,Sequence,shrunken log2 fold change
1,RRIRLRPPRLPRPRPRPWMHPRP,0.0873
2,RRIRYRPPRLPRPRPRPYCHPRP,-0.435
3,RRIRYRPPRLPRPRPRPPWLPRP,1.46
4,RRIRPRPPRLPRPRPRPANTPRP,-0.224
5,RRIRWRPPRLPRPRPRPIMVPRP,-0.0215
6,RRIRARPPRLPRPRPRPVYMPRP,-0.436
7,RRIRMRPPRLPRPRPRPCWDPRP,0.439
8,RRIRRRPPRLPRPRPRPMIYPRP,-0.305
9,RRIRFRPPRLPRPRPRPMVGPRP,-0.225
10,RRIRRRPPRLPRPRPRPPQEPRP,0.405
11,RRIRQRPPRLPRPRPRPHYKPRP,-1.18
12,RRIRNRPPRLPRPRPRPIGSPRP,-0.00277
13,RRIRFRPPRLPRPRPRPNLRPRP,-0.0383
14,RRIRHRPPRLPRPRPRPDLLPRP,-0.0324
15,RRIRPRPPRLPRPRPRPFCQPRP,-0.257
16,RRIRKRPPRLPRPRPRPHHKPRP,-0.176
17,RRIRFRPPRLPRPRPRPYSEPRP,-0.297
18,RRIRGRPPRLPRPRPRPECWPRP,1.92
19,RRIRYRPPRLPRPRPRPFVWPRP,0.119
20,RRIRIRPPRLPRPRPRPPGVPRP,0.408
21,RRIRSRPPRLPRPRPRPAGGPRP,0.529

# Source: the supplement of paper PMC9112550, “Optimization of the antimicrobial peptide Bac7 by deep mutational scanning” (BMC Biology, 2022)
